Measurements taken from paper PMC2901902 (Nature, 2010).

Target: human DPF3b PHD12 (tandem PHD finger) (Homo sapiens, UniProt Q92784)
Assay: DPF3b PHD12 binding to modified histone peptides
Settings: H3 peptide residues 1–20, versus H3K14ac

Sequence of human DPF3b PHD12 (tandem PHD finger) (Q92784 261-372): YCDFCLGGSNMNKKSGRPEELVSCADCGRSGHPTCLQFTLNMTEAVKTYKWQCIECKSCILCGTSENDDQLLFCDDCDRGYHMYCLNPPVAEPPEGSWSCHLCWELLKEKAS

Substance: H3 peptide (residues 1–20): H3 peptide (residues 1–20), not acetylated at K14
- reduction in affinity when H3 is not acetylated at K14: 4 fold
